Measurements taken from patent publication US20240327502A1.

Tests used:
[1] = substrate: F protein of hMPV B virus (human metapneumovirus subtype B); assay: cell-based or functional assay
[2] = substrate: F protein of hMPV A virus (human metapneumovirus subtype A); assay: cell-based or functional assay

Binder	PRNT IC50 [1]	PRNT IC50 [2]
M2D10 (antibody, V domains shown) VH: QVQLVQSGAEVKKPGASVRISCKPSGRAFLTYDINWVRQAPGQGLEWMAGMNPGSGNAAYAPKFQGRLTMIRNTSISTDYLELSSLTSEDTAVYYCARGEVSMRWRWLDPWGQGSLVTVTS VL: DIQMTQSPSSLSASVGDRVTITCRASQTISNFLNWYQQKPGRAPKVLIYAALNLQSGVPSRFRGSGSGTDFTLTINNLQPEDFAIYYCQQSYITPWTFGQGTKVEIK	1.34 µg/mL	0.759 µg/mL
M4A12 (antibody, V domains shown) VH: QLQESGSGPGLVKPSETLSLICNASGDSVTRNAYYWGWLRQPPGKGLEWIGIMYYSGSTFYNPSLKSRLTISVDTSKNQFSLKLRSVTAADTATYYCGEATLTTYDAFDVWGHGTMVTVSS VL: QSVLTQPPSVSAAPGQRVTISCSGGNSNIGKNYVSWYQQVPGTAPKLLIYENNKRPSGIPDRFSGSKSGTSATLGITGLQTGDEADYYCGAWDSSLNGVLFGGGTRLTVL	0.0744 µg/mL	> 10 µg/mL
M3D06 (antibody, V domains shown) VH: EVQLVESGGGLVQPGGSLRLSCAASGFPFNFYWMHWVRQAPREGLVWVSRINNDGSSPNYADSVWGRFTISRDNAKNTLYLQMHSLRAEDTAVYYCARAARFGDYVDQWGQGTLVTVSS VL: AIQLTQSPSSLSASMGDRVTITCRASQGISSAFAWYQQKPGKAPKLLIYDASTLESGVPSRFSGSGSGTDFTLTISSLQPEDFATYYCQQFNSYPLTFGGGTKVEIK	> 10 µg/mL	> 10 µg/mL
M6E10 (antibody, V domains shown) VH: QVQLVQSGAEVKKPGSSVKVSCNASGGIFDTNVINWVRQAPGQGLEWMGGIIPPFGTALYAHQFQGRLTLTVDESTNTAYMDLSSLRSDDTAVYFCARDRTVIKYADGMDVWGQGTTVTVSS VL: DIQMTQSPSSLSASVGDKVAITCRASQTISPYLNWYQQKPGKAPNLLIYGTNKLQSGVPLRFSGSGSGTDFTLTINGLQPEDFATYFCQQSHTTPLTFGGGTKVEIKR	0.0104 µg/mL	0.0237 µg/mL
M3C07 (antibody, V domains shown) VH: QLQLQESGPGLVKPWETLSLTCIVSGGSISRSTHYWGWIRQSPEMGLEWIGSIYYTGNTYYNPSFKSRVTISVDTSRNQLSLRVNSVSAADTARYYCARHETYDYGVFNIWGQGAMVTVSA VL: EIVLTQSPGTLSLSPGERAILSCRASQTVSSDYLAWYQQRPGQAPRLLIYDASSRATGVPDRFRGSGSGTDFTLTISRLEPEDFGVYYCQQYGSPYTFGQGTKLEIK	> 10 µg/mL	> 10 µg/mL
M3E03 (antibody, V domains shown) VH: QVQLVESGGGVVQPGRSLRLSCVASGFPFDSFAMHWVRQAPGKGLEWVAIVWYDGGDKFYSESVKGRFSISRDNSRNTVFLQMNSLRAEDTAVYYCARGMITFDYWGPGTLVTVSS VL: EIVLTQSPGTLSLSPGERATLSCRASQNVDSSYLAWYQQKPGQAPRLLMYGASTRVAGIPDRFSGSGSGTDFTLTISRLEPEDFVVYYCQQYGTSPTWTFGQGTKVEIK	0.0762 µg/mL	0.0199 µg/mL
M3D12 (antibody, V domains shown) VH: QVQLQESGPGLVKPSQTLSLTCTVSGASVSSEYYYWSWIRQPPGKGLEWIGYIYHNGDTYYNPSLKGRGIISMDTSKNQFSLKLISVTAADTAVYYCARLAVAGVTGFHYWGLGTLVTVSS VL: EIVLTQSPDTLSLSPGERATLSCRASRSVRNYLAWYQQKPGQAPRLLIYDASNRAPGIPARFSGSGSETDFTLTISSLEPEDFAVYYCQQRSNWGLTFGGGTKVEIK	0.0145 µg/mL	0.0231 µg/mL
M3D09 (antibody, V domains shown) VH: QVQLVESGGGVVQSGKSLGLSCIASGFIFSNYALHWVRQAPGKGLEWLSVISYDGTNKYYANSVRGRFTVSRDNSKNTLFLHMNSLGVDDTAMYYCARDPERLADLGRMDFWGRGTLVAVLS VL: DIVMTQSPDSLAVSLGERATINCKSSQSVLFSPNNKNYLAWYQQKPGQPPKLLIYWASTREYGVPERFSGSGSGTDFTLTISSLQAEDVAVYYCQQYNSNPYTFGQGTKLEIR	0.28 µg/mL	2 µg/mL
M4B01 (antibody, V domains shown) VH: EVQLLESGGGLVQPGGSLRLSCAASGFNFNTYAMSWVRQAPGKGLKWISTISGSGGVKYYADSVKGRFTISRDNSGSILYLQMNRLRADDTAVYYCAKSQNPQLVFFDSFDMWGQGSMVTVSS VL: QSVLTQAPSASAAPGQKVTISCSGSTSNIGNSYVSWYQQVPGTAPKLLIYEDNQRPSGIPDRFSGSKSGTSATLGITGLQTGDEADYYCGTWDNSLTEVVFGGGTKLTVL	0.0628 µg/mL	0.0371 µg/mL
M2A09 (antibody, V domains shown) VH: QVQLVQSGAGVRKPGSSVKVSCKASGGTFSNYIISWVRQAPGQGLEYIGRIIPIVGMEKYEEKFQGRVKITADESTSTVSMELTSLKSEDTATYYCATEGLESGYPPYLEHWGRGTLVIVSS VL: EIVLTQSPGTLSLSPGERATLSCRTSQTVGAHLAWYQQKPGQSPRLLIYGASSRATGIPDRFSGSGSGTVFTLTINRLEPEDLAVYYCQQYGASPPTFGQGTKVEIK	0.0456 µg/mL	0.0133 µg/mL
M4B04 (antibody, V domains shown) VH: QVQLVESGGGVVQPGKSLRLSCAASGFTFRSYTMFWVRQAPGKGLEWVAIILHDGTNRYYTDSVKGRFTISRDNTKNTVYLQMNSLRPEDTAMYYCARESLEWMLDWGQGTLVTVSS VL: EIVMTQSPATLSVSPGERATLSCRASQSLSGNLAWFQQKPGQAPRLLIYGTSTRATGIPARFSGSGSGTEFTLTISSLQSEDFAVYYCQQYNNWPPVFTFGPGTKVDIK	1.97 µg/mL	4.59 µg/mL
M3E01 (antibody, V domains shown) VH: EVQLVESGGGLIQPGGSLRLSCTASGFTVSSKYMSWVRQAPGKGLEWVSLIYDGGSTYYADSVKGRFLISRDNAKNTLYLQMHSLRAEDTAVYYCARDRGTYSGYDWYSGMDVWGQGTTVTVSS VL: DIQLTQSPSFLSASVGDRITITCRASQGISSYLAWYQQKPGKAPKLLIYAASTLQSGVPSRFSGSGSGTEFNVTISSLQPEDFATYYCQQLKSYPGTFGQGTKVEIE	> 10 µg/mL	> 10 µg/mL
M4A08 (antibody, V domains shown) VH: EVQLVESGGALVRPGGSLRVSCEASGFNFRTHWMHWVRQAPGKGLVWVARTNGDGSVTNYADSVKGRFTFFRDNAKNTLFLQMTSLRVDDTAVYYCARERLDYSSTRGHFPGDFDSWGQGTLVTVSS VL: DIVMTQSPDSLAVSLGERATINCKSSESVLYTSNSKNYLAWYQQKPGHPPKVLIYWASTRESGVPDRFSGSGSGTDFSLSISSLQAEDVAVYYCQQYFTIPRTFGQGTKVEIK	0.344 µg/mL	0.136 µg/mL
M1C11 (antibody, V domains shown) VH: QVQLVQSGAEMKKPGSSVKVSCKTSGGSFSSYPVSWVRQAPGQGPEWMGGIIPLSGTTHYAQMFQGRVSITADDSTRTVFMELTSLRSGDTAVYYCARSGAPTYYYDSSGFHGGAFHFWGQGTVVTVSS VL: DIVMTQSPDSLAVSLGERATINCKSSQSVLYSSNSKSYLAWYQQKPGQPPKLLIYWASSRESGVPDRFSGSGSGTDFTLTISSLQAEDVAVYYCQQFYTSPHTFGQGTKLEIKR	0.444 µg/mL	5.92 µg/mL
M2B07 (antibody, V domains shown) VH: EVQLVESGGGLVRPGGSLRLSCAASGFTFNNYWMHWVRQAPGKGLVWVSHVKSDGSITNYADSVKGRFTISRDNAKNTLYLEMSSLRVEDTAVYYCARESRPYDPLTGSHPDAFDIWGQGTMVTVSS VL: DIVMTQSPDSLAVSLGERATINCKSSESIFYYSNSKSYLAWYRQKPGQPPKLLIYWASTRESGVPDRFSGSGSGTDFTLTISSLQPEDVAVYYCQQYYTNPRTFGQGTRLEIK	0.426 µg/mL	0.625 µg/mL
M2E06 (antibody, V domains shown) VH: EVQLVESGGDLVQPGGSLRLSCEASAFTFSDYAMTWVRQAPGKGLEWVSSINTSGGRTYYADSVKGRFTISRDNSKNTLYLQMKSLRAEDTAVYFCARFFYVMDVWGQGTTVTVSS VL: AIQMTQSPSSLSASVGDRVTITCRASQGVRNDLGWYQQKPGKAPKLLINAASGLQSGVPSRFSGSGSDTDFTLTISSLQPEDFATYYCLQVYSYPFTFGPGTKVDIK	0.139 µg/mL	0.105 µg/mL
M1A12 (antibody, V domains shown) VH: QVQLVQSGTEVKKPGSSVKVSCKDPGDIMSSHSIHWVRQAPGQGPEWMGRIIPLFGMKSYAPNFQGRVSISVDTSTNTAYLELSGLKSDDTAVYFCAREENLSWLDYWGQGTQVIVSS VL: EIVLTQSPATLSLSPGDRATLSCRASLRLSTNIAWYQQKPGQAPRLVIYDASKRATGIPARFSGSGSGTDFTLTISSLEPEDFAVYYCHQHSNWYTFGQGTKLEIK	5 µg/mL	1.51 µg/mL
M4C02 (antibody, V domains shown) VH: QLQLQESGPRLVKPSETLSLTCSVSGGSISSSSLYWGWIRQSPGKGLEWIGTIYYGGSSDYNPSLKSRLTMSVDTSKNHFSLRLSSVTAADTAVYYCARVGSPVTTTVWFDPWGQGTLVTVSS VL: DIQMTQSPSSLAASIGDRVTITCRASQTISTYLNWYQQKPGKAPKLLIYAASTLQSGVPSRFSGSGSGTDFTLTISSLQPEDFATYYCQQTYSSLALTFGGGTKVEIR	0.173 µg/mL	0.577 µg/mL
M1A01 (antibody, V domains shown) VH: QVQLVQSGAEVKKPGSSVKVSCWASGGTFDNAINWLRQAPGQGPEWMGRIIPLVDIVNRAPKFQDRVSFTADKSTNTVYMVLNSLTSDDTAVYYCASAFQDGWFDPWGQGTLVTVSS VL: EIVLTQSPATLSLSPGERATLSCRASQSLSRYLAWYQQKPGQAPRLLIYDASNRATGVPARFSGSGSGTDFTLTISSLEPEDFAVYYCHQRHNWITFGQGTRLEIK	4 µg/mL	3.41 µg/mL
M2D07 (antibody, V domains shown) VH: QVQLVESGGAVVQPGRSLRLSCAASGFTFTSFSMHWVRQAPGRGLEWVAVISHDGIIKYYADSVKGRFTISRDNSKNTVFLQMNSLRPEDTAVFYCARDFPGSRGFFRYYFDHWGQGTLVTVSS VL: DIQMTQSPSSLSASVGGSVTITCRVDQSISNDLHWYQQKPGKAPKLLISSASSLQSGVPSRFSGSGSGTDFTLTITSLQPEDFATYYCQQSYTTPPLFGQGTTLEIK	2.5 µg/mL	1.07 µg/mL
